From the supplement of paper PMC10724198
± gives the standard deviation of the averaged measurements.

test system: Saccharomyces cerevisiae; assay: protein stability index of tFT-peptide fusion (C-terminal peptide) (PSI (0-1 scale)); higher = more stable (slower turnover); settings: genetic background: wild type; temperature: 30 C
Description: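 Multiplexed protein stability (MPS) profiling in S. cerevisiae. Random 12-aa peptides (tFT-X12 library) are fused to the C-terminus of a sfGFP-mCherry tandem fluorescent timer, after mCherry and a GGGS linker. Cells are FACS-sorted into 8 mCherry/sfGFP bins and deep-sequenced. The protein stability index (PSI) is the read-weighted bin average, scaled from 0 (unstable) to 1 (stable). Only peptides with >10 reads are reported; cells were grown at 30 °C in SC-His with glucose.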
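Note: PSI is a weighted mean of sequencing reads over stability bins, variants kept only with over 10 reads, mCherry proximal and sfGFP distal, peptide attached via GGGS linker.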

| Sequence | protein stability index |
| --- | --- |
| GSVRCGLRVRVG | 0.605 ± 0.047 |
| GSWIKFVCRRAG | 0.731 ± 0.0095 |
| GSWLGGRTLAGI | 0.707 ± 0.036 |
| GTACIIVSGYGL | 0.643 ± 0.016 |
| GTCWAGAMGGVG | 0.675 ± 0.042 |
| GTDLKGFPFLTF | 0.688 ± 0.014 |
| GTEKESRRKREQ | 0.698 ± 0.042 |
| GTGERHIASEEK | 0.728 ± 0.013 |
| GTGMHEGEPGEV | 0.686 ± 0.046 |
| GTGRGRAGARCK | 0.679 ± 0.018 |
| GTRAGGRSKRER | 0.735 ± 0.11 |
| GTRWPLVAPRER | 0.7254 ± 0.0045 |
| GTVGRPNATGKV | 0.742 ± 0.088 |
| GVAEFDGWFCLG | 0.7329 ± 0.0022 |
| GVAWGCVSRVFG | 0.68 ± 0.045 |
| GVCLGCWCWWVG | 0.604 ± 0.044 |
| GVCVLGGWSGFW | 0.758 ± 0.062 |
| GVDPVGVLFCGA | 0.656 ± 0.074 |
| GVEGAEFVEAGT | 0.699 ± 0.041 |
| GVEGCKRAGKLR | 0.651 ± 0.033 |
| GVERLGGVLYVL | 0.6274 ± 0.0015 |
| GVFWGYGLRDGV | 0.731 ± 0.073 |
| GVGCGGACRPVG | 0.662 ± 0.09 |
| GVGFGCGGVWME | 0.731 ± 0.012 |
| GVGFGGGGVWME | 0.746 ± 0.031 |

| Sequence | protein stability index |
| --- | --- |
| GVGGGEAGVIGR | 0.769 ± 0.041 |
| GVGGGGRLMCGV | 0.667 ± 0.04 |
| GVGGGGVGLWLG | 0.656 ± 0.025 |
| GVGSGEASDGCT | 0.626 ± 0.12 |
| GVGWVWGGVWAG | 0.744 ± 0.045 |
| GVGYRLGACPDR | 0.695 ± 0.053 |
| GVIQARRSASSS | 0.689 ± 0.043 |
| GVLEEVGPGLFL | 0.78 ± 0.14 |
| GVLGPSFLSVAV | 0.584 ± 0.0082 |
| GVLGRVRLGWVG | 0.671 ± 0.012 |
| GVLKQGSLPCRD | 0.706 ± 0.14 |
| GVLSYCGFVTFG | 0.603 ± 0.02 |
| GVMCRTGSGMVM | 0.711 ± 0.021 |
| GVNDRLIKMSCA | 0.667 ± 0.033 |
| GVPFPGPNTLIL | 0.73 ± 0.075 |
| GVRGLLAGGGVW | 0.709 ± 0.027 |
| GVRRSRAARVRK | 0.777 ± 0.18 |
| GVTYEDFWGYCG | 0.797 ± 0.018 |
| GVVGGGGEAWRE | 0.794 ± 0.038 |
| GVVGTVEGGATG | 0.658 ± 0.037 |
| GVVGVWRGAGWR | 0.717 ± 0.041 |
| GVVSSHVDMIGL | 0.668 ± 0.0067 |
| GVVVGCGYGLVG | 0.665 ± 0.04 |
| GVVWMSCGGGGG | 0.7684 ± 0.0017 |
| GVWEGLQLGLIS | 0.7826 ± 0.0032 |

| Sequence | protein stability index |
| --- | --- |
| GVWGGGGGWGVA | 0.688 ± 0.0096 |
| GVWPVGWWCRGR | 0.748 ± 0.047 |
| GWCACFMGSGWG | 0.703 ± 0.06 |
| GWCRSYVAFGVY | 0.64 ± 0.052 |
| GWDRDQKPENKE | 0.738 ± 0.045 |
| GWFTMLTGAFAE | 0.7249 ± 0.003 |
| GWGGGAAQKCGQ | 0.7 ± 0.039 |
| GWGGGGFRVVVG | 0.782 ± 0.049 |
| GWGMVLYRNMML | 0.6039 ± 0.0046 |
| GWGRGGFRVVVG | 0.712 ± 0.02 |
| GWLASPHFPYAY | 0.6883 ± 0.001 |
| GWLIWRVYGGGG | 0.654 ± 0.014 |
| GWSRCVFGGYRL | 0.7 ± 0.022 |
| GWSSTLTFLGGA | 0.701 ± 0.0078 |
| GWTQFVLHSMFG | 0.72 ± 0.088 |
| GWVPCGSWRVPG | 0.631 ± 0.038 |
| GWVQRGAEARRE | 0.705 ± 0.047 |
| GWWGCGASVCGV | 0.72 ± 0.15 |
| GYARESERFGIH | 0.694 ± 0.011 |
| GYFHADYIPLSY | 0.7474 ± 0.0029 |
| GYGPSFALRPDS | 0.651 ± 0.026 |
| GYGWGVGWGFGR | 0.673 ± 0.028 |
| GYMRMGLCVYSD | 0.596 ± 0.092 |
| GYRGMERGEGGG | 0.723 ± 0.068 |
| GYTSRGISFLRA | 0.698 ± 0.042 |

| Sequence | protein stability index |
| --- | --- |
| GYVVVGGGGGLG | 0.717 ± 0.039 |
| HAQRTSSRRAKS | 0.711 ± 0.019 |
| HARFRPRKAVGD | 0.67 ± 0.042 |
| HATFSLFLASCY | 0.625 ± 0.011 |
| HCLIPGEIHRIS | 0.6741 ± 0.0037 |
| HCRDCLVLIQFN | 0.664 ± 0.048 |
| HCSLRPRPNHAR | 0.746 ± 0.032 |
| HDHEARHSDSLN | 0.658 ± 0.026 |
| HDRRGLRRISAT | 0.647 ± 0.0084 |
| HEHFRDRAGPAS | 0.636 ± 0.017 |
| HEVRGVFWNPRF | 0.712 ± 0.053 |
| HFPIPPSLFFRP | 0.631 ± 0.019 |
| HGLFGRACRASH | 0.66 ± 0.043 |
| HGTVQNIVARYV | 0.611 ± 0.026 |
| HHGCATVTSRAS | 0.654 ± 0.042 |
| HHPKTCHHLSRA | 0.6853 ± 0.0037 |
| HHRNNTPLNHSY | 0.63 ± 0.007 |
| HIFQRMCKDMQL | 0.6296 ± 0.0037 |
| HIKAEKRKKKTS | 0.608 ± 0.024 |
| HISRTLVDADIG | 0.66928 ± 8e-05 |
| HISTQREEIDPA | 0.6506 ± 0.00086 |
| HITTNHLPTSCD | 0.73 ± 0.039 |
| HLGIGTRVWEFG | 0.716 ± 0.061 |
| HLLLGPRSPPSP | 0.661 ± 0.022 |
| HLPASLHLDYSI | 0.675 ± 0.043 |

| Sequence | protein stability index |
| --- | --- |
| HLPPFLRPPFPL | 0.686 ± 0.017 |
| HLSNPRPPPPTR | 0.703 ± 0.016 |
| HNMSDARRPSNI | 0.702 ± 0.021 |
| HPCKKEKLYHLK | 0.594 ± 0.091 |
| HPDAGTAARDTD | 0.648 ± 0.092 |
| HPFGHSFLTAPF | 0.793 ± 0.16 |
| HPGPAPPPPRGP | 0.66 ± 0.019 |
| HPLLPRPVPLTD | 0.665 ± 0.059 |
| HPLPSSHLPPRP | 0.75 ± 0.15 |
| HPLPTPSPHLSP | 0.728 ± 0.016 |
| HPPLPLPCAFPP | 0.7 ± 0.033 |
| HPPLPPPPIVPS | 0.696 ± 0.067 |
| HPPLSPPSALFL | 0.719 ± 0.069 |
| HPPPPAAKVAPV | 0.629 ± 0.048 |
| HPPPTHAQGRLV | 0.671 ± 0.021 |
| HPPTSPGGLRQP | 0.686 ± 0.0069 |
| HPSRPARPTRHP | 0.806 ± 0.072 |
| HPTTHYLPRPAH | 0.6779 ± 0.0022 |
| HPVPSPSLRPPP | 0.716 ± 0.072 |
| HRCLSRTVSPPS | 0.671 ± 0.04 |
| HRKNKYKRKTTK | 0.676 ± 0.05 |
| HRVRVRVYTCGF | 0.634 ± 0.05 |
| HSGLTGLRRLVA | 0.594 ± 0.012 |
| HSLPPPCLHSTP | 0.683 ± 0.021 |
| HSPHISAPPLPY | 0.588 ± 0.024 |

| Sequence | protein stability index |
| --- | --- |
| HSPPPPPALLPL | 0.66 ± 0.028 |
| HSPTPLLPPSPS | 0.727 ± 0.045 |
| HSRKVHGLWALR | 0.695 ± 0.0081 |
| HSSFCIVIRVSR | 0.5125 ± 0.001 |
| HTKHSQIIKHQS | 0.641 ± 0.03 |
| HTTPGPYVLPWP | 0.807 ± 0.06 |
| HVALPAFKQLSG | 0.746 ± 0.051 |
| HVLQFQTNIRQN | 0.636 ± 0.1 |
| HVLSQSLSALPC | 0.681 ± 0.044 |
| HVPGKWTLGFGI | 0.761 ± 0.054 |
| HVSINERFKSMY | 0.717 ± 0.025 |
| HVTLGRGGVGPN | 0.681 ± 0.02 |
| IACGAGGRGFSC | 0.721 ± 0.025 |
| IAISAPSLLDTS | 0.643 ± 0.026 |
| IALLQRTSSTPD | 0.748 ± 0.028 |
| IARLLFPPPGPI | 0.643 ± 0.037 |
| IASLVSVCFLRD | 0.683 ± 0.029 |
| IASNAENCDVGV | 0.695 ± 0.11 |
| ICFGCLSWAGSW | 0.554 ± 0.057 |
| ICLLGTSSQRRD | 0.705 ± 0.0077 |
| ICPWLLPPSCRS | 0.738 ± 0.015 |
| ICSDGIYTKGLC | 0.66 ± 0.024 |
| ICSFVFTTLFGG | 0.6442 ± 0.0026 |
| ICVSVLIRHREL | 0.545 ± 0.019 |
| IDRSHFAGVIVC | 0.5735 ± 0.0029 |

| Sequence | protein stability index |
| --- | --- |
| IEESNKKIKNEI | 0.713 ± 0.032 |
| IEITERRQKKIQ | 0.699 ± 0.088 |
| IENREVNIVERT | 0.686 ± 0.011 |
| IENVETSLKVVG | 0.651 ± 0.0081 |
| IESKANPRRIEV | 0.696 ± 0.027 |
| IFCCFFPRFPVF | 0.642 ± 0.013 |
| IFKAIDQTYTDK | 0.758 ± 0.15 |
| IFWVGLSYVAEQ | 0.65 ± 0.0084 |
| IGARESGGWSLC | 0.686 ± 0.023 |
| IGFHSGLFYYHC | 0.594 ± 0.056 |
| IGGAPRIETIYP | 0.704 ± 0.074 |
| IGGLAGFGSALT | 0.759 ± 0.12 |
| IGGPIIYTGRLH | 0.682 ± 0.19 |
| IGISIRTAQGEL | 0.674 ± 0.02 |
| IGMICYGKDTQY | 0.726 ± 0.0073 |
| IGRWHCPDLPRH | 0.653 ± 0.12 |
| IGWFGRCGCCCW | 0.714 ± 0.2 |
| IGYSSIYKTTGT | 0.668 ± 0.033 |
| IHLGVLTAFGLS | 0.701 ± 0.032 |
| IIAGGGPARGCG | 0.635 ± 0.0071 |
| IIGPFDSYVYGL | 0.7 ± 0.0071 |
| IIGVKNEGRGRE | 0.724 ± 0.089 |
| IILKEDKSIKKR | 0.6595 ± 0.0032 |
| IITAARGDTLSR | 0.706 ± 0.018 |
| IKDESNLKKHKN | 0.715 ± 0.041 |

| Sequence | protein stability index |
| --- | --- |
| IKGKYYEAKNKI | 0.714 ± 0.054 |
| IKKKKKKKKKRQ | 0.668 ± 0.027 |
| IKKKKKVRYIRI | 0.705 ± 0.06 |
| IKKKKNKKENAE | 0.725 ± 0.092 |
| IKKKTTKTKIKK | 0.741 ± 0.031 |
| IKKNKQNKIKRN | 0.699 ± 0.016 |
| IKNRRTSKYLII | 0.548 ± 0.0058 |
| IKPKKKEKKQEN | 0.704 ± 0.046 |
| IKRYYLDSMKRK | 0.576 ± 0.0069 |
| IKSHHVIPNSCL | 0.616 ± 0.058 |
| IKSKCIQSKETT | 0.6037 ± 0.005 |
| IKVRGEQAEEAE | 0.684 ± 0.04 |
| ILFLRFLHSVFS | 0.5364 ± 0.0038 |
| ILGPPPRLPFPS | 0.657 ± 0.012 |
| ILHCVCFGLFHF | 0.614 ± 0.014 |
| ILPFSGLAFFLP | 0.677 ± 0.039 |
| IMGGPGLTALSR | 0.729 ± 0.061 |
| IMGLGLASAKRM | 0.677 ± 0.073 |
| IMGRRGEDGVID | 0.682 ± 0.061 |
| INGTEYVVGRKA | 0.686 ± 0.0097 |
| INKKETKKNKIK | 0.612 ± 0.073 |
